These results are taken from PMC2774623 (Biochemistry, 2008).

Usually Kd stands for a measure of binding affinity in units of concentration. In general, koff refers to the first-order rate constant of dissociation. One may read the kon as the rate constant with which the complex forms.

B1: recombinant β-subunit of human protein kinase CK2 (natural protein)
chain: not shown
B2: wild-type recombinant murine NBD1 (nucleotide binding domain 1 of CFTR, spanning sequence 389−673) (domain or fragment, mouse, UniProt P26361 389-673, looked up)
chain: TTGIIMENVTAFWEEGFGELLEKVQQSNGDRKHSSDENNVSFSHLCLVGNPVLKNINLNIEKGEMLAITGSTGSGKTSLLMLILGELEASEGIIKHSGRVSFCSQFSWIMPGTIKENIIFGVSYDEYRYKSVVKACQLQQDITKFAEQDNTVLGEGGVTLSGGQRARISLARAVYKDADLYLLDSPFGYLDVFTEEQVFESCVCKLMANKTRILVTSKMEHLRKADKILILHQGSSYFYGTFSELQSLRPDFSSKLMGYDTFDQFTEERRSSILTETLRRFSVDD
B3: CFTR peptide 506−518 ΔF (peptide, UniProt P13569 506-518, looked up)
peptide: IIGVSYDEYRYR
B4: wild-type human NBD1 (spanning sequence 389−673) (domain or fragment, UniProt P13569 389-673, looked up)
chain: TTEVVMENVTAFWEEGFGELFEKAKQNNNNRKTSNGDDSLFFSNFSLLGTPVLKDINFKIERGQLLAVAGSTGAGKTSLLMVIMGELEPSEGKIKHSGRISFCSQFSWIMPGTIKENIIFGVSYDEYRYRSVIKACQLEEDISKFAEKDNIVLGEGGITLSGGQRARISLARAVYKDADLYLLDSPFGYLDVLTEKEIFESCVCKLMANKTRILVTSKMEHLKKADKILILHEGSSYFYGTFSELQNLQPDFSSKLMGCDSFDQFSAERRNSILTETLHRFSLEG
B5: ΔF508 mutated recombinant murine NBD1 (spanning sequence 389−673) (domain or fragment, mouse, UniProt P26361 389-673, looked up)
chain: TTGIIMENVTAFWEEGFGELLEKVQQSNGDRKHSSDENNVSFSHLCLVGNPVLKNINLNIEKGEMLAITGSTGSGKTSLLMLILGELEASEGIIKHSGRVSFCSQFSWIMPGTIKENIIGVSYDEYRYKSVVKACQLQQDITKFAEQDNTVLGEGGVTLSGGQRARISLARAVYKDADLYLLDSPFGYLDVFTEEQVFESCVCKLMANKTRILVTSKMEHLRKADKILILHQGSSYFYGTFSELQSLRPDFSSKLMGYDTFDQFTEERRSSILTETLRRFSVDD

Like-named read-outs stand apart in the source and are kept apart here.

What all share (assay): SPR
(In general: Surface plasmon resonance follows binding to a sensor surface in real time, without labels.)

Test [1] concerns the target B5.
Test [2] deals with B2.
The target of test [3] is T1, recombinant α-subunit of human protein kinase CK2 (human, UniProt P68400 1-391).
T1 sequence (P68400 whole entry): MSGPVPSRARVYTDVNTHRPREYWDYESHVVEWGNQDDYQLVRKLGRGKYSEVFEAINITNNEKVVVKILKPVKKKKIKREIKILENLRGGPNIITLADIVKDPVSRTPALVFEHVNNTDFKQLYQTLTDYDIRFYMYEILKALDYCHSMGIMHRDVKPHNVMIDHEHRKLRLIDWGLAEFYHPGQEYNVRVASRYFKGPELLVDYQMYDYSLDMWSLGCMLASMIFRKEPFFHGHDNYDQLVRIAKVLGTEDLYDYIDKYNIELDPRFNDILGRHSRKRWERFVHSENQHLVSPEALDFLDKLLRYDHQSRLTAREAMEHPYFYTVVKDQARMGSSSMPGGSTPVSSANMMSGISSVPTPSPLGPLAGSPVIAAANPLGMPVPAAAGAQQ
The target of test [4] is B4.
The target of test [5] is T1, recombinant α-subunit of human protein …. The source holds these as a separate data set.
Test [6] has the same target. This is another data set of the same source.

On to B1, for which the binding result in test [1], in test [2], in test [3] and in test [4] was “binds” each time.
For B2, in test [5], the Kd stood at 2470 nM, the off-rate (koff) was 0.000335 s⁻¹ and the kon is 135 M⁻¹ s⁻¹.
Regarding B3, the binding result in test [3] was “binds”.
For the molecule B4, in test [6], the binding result is “binds”.
With B5, in test [5], the dissociation constant Kd is 91.2 nM, the off-rate constant (koff) amounted to 8.77e-05 s⁻¹ and the on-rate (kon) is 961 M⁻¹ s⁻¹.
